Assay: label from the status in PepcDB records

| Sequence | protein production |
| --- | --- |
| MFRIIQPHRWKLAVLMIAANLGLLAFLAFGTIKHVSEWQWLDIVGEGGSALLSLVWLFLVFKSRPAGRVTNYLSVGLSCVFFSWWIDALDEFIRLPAEIEWDHWLESGPMPVGLILLTLGIYHWHREQLAISAQMEKRERGFREHRLYDKLTPLGSADYLKRQLIVSLEQSLCQQQPLSLLALDLDGFSTINNAFGHAEGDEVLSAISHLLVLNLRRQDLLCRLAGDRFVVLMPNTGESQAKLLALELQQAVASLAHKTRQQGERLHLSASVAVVMALNETPDNLLRRLNLSLARARRPLTRTA | failed |
| MFRPENVQALAGLALTLGLCWLVSENRKRFPWGLAIGAVVIQVLLVLVLFGLPQAQQMLRGVNGAVEGLAASTQAGTAFVFGFLAGGDQPYPVSNPGAGFIFAFRVLPVILVVCALSALLWHWKILKWLAQGFGFVFQKTLGLRGPPALATAATIFMGQVEGPIFIRAYLDKLSRSELFMLIAVGMACVSGSTMVAYATILADVLPNAAAHVLTASIISAPAGVLLARIIVPSDPMEKSADLDLSTEDKTYGSSIDAVMKGTTDGLQIALNVGATLIVFVALATMVDKVLGAFPPVGGEPLSIARGLGVVFAPLAWSMGIPWKEAGTAGGLLGVKLILTEFTAFIQLSKVGEALLDERTRMIMTYALCGFANIGSVGMNVAGFSVLVPQRRQEVLGLVWKAMMAGFLATCLTASLVGLMPRSLFGL | failed |
| MFRWFIAAIEDVYLPVPVMHLLTSNFAPFPWQHLDYTVVQLTKQDSNCLQALFERCTDFFNLTTGQPPASTAAEAEFVDVPAGKTPEDLHVFGLHHPQKGLIGTIIAVQDYPEAATWWIGTMLIDPVYRSQGVGSAFYQAFERWLAAQGVTGIELCAIASNTSGRAFWQRMGFEEIRQTPSRSFGQRHHIAHVYRRCLILLTRRAEFESYDPLNSLNAYLCKTEVINWQHPDIQALAQQLAAGHETPVVIAQACFEWVRDAIRHSVDYQMNPVTWRASDVLQHKTGYCFAKSHLLAALLRANQIPAGFCYQRLSIDDRGTPYSLHGFNAVYLPITGWHRVDPRGNKPGIDTKFSPPIEHLAYQPKLDEEADFSAILAEPLAIVVTALQTHATWDALLHHLPDMTPNTATTIGLYCY | failed |
| MFSKGVDSLDRTQDDPVHCMPGLTAGLSGRLLLLTVIFVMIAEVLIFVPSVANMRLSWLRDRLNTAAAAGAVIDGLQAELPRSVQNDTLMATGAKLIALRKDGTSRLLAVAETPPGVDEQYDLSDVSQAAAVRDAFSTLLFGGNRVIRVFDVVGDSDTIIELVLGENKLRAAMLAYARNVFLISIVLSLVTAGLIFISINRIMIRPIRRLTLGMQNFSEDPGNPERIFVPEEGTDELSVAGRHLADMQTELQKTLRQQKNLVDLGLAVSKINHDMRNILSSAQLMSDRLVDAKDPMVRSFAPKLLRTIDRAVAYTGEVLAYGQATEGAPKRKIVPLSLLVRDVRDILALDPDSGIEFHDSVPPDLTVDADSEQLFRVIHNLCRNAVQALQSDVANSAPRHLSISAQRAGSVVSIVIDDNGPGMPRKAKENLFSAFRGSARSGGTGLGLVIARELVLAHGGTIALVEKPGPGTQFRIEIADRAASIQAARTA | failed |
| MFSMILSGLICGALLGFVMQRGRFCLTGGFRDMYIVKNNRMFYALLIAISVQSVGVFALIQAGLLTYEAGAFPWLGTVIGGYIFGLGIVLAGGCATGTWYRAGEGLIGSWIALFTYMVMSAVMRSPHASGLNQTLQHYSTEHNSIAETFNLSVWPLVAVLLVITLWVVMKELKKPKLKVATLPPRRTGIAHILFEKRWHPFVTAVLIGLIALLAWPLSEATGRMFGLGITSPTANILQFLVAGDMKYINWGVFLVLGIFVGSFIAAKASREFRVRAADAQTTLRSGLGGVLMGFGASIAGGCSIGNGLVMTAMMTWQGWIGLVFMILGVWTASWLVYVRPQRKARLATAAAN | failed |
| MFSPEQIAGKDVRLLRIKKEGSLDLALEGGVDSPVGKVVVSAVYEGGAAERHGGVVKGDEIMAINGKIVTDYTLAEAEAALQKAWNQGGDWIDLVVAVCPPKEYDDELTFF | not failed |
| MFSQWVFLSVLALAVPSFAWAEDAVSDLAREQSKAEQGDKRGDELFAEFTRLRQAAETGEPQALFDFGAYFYQQQNYASAREWWGKAAAAGMVRAQIQLAMLYRDGDGGPQDKTEAARWFRKAAEQGDAAAQNEMGVLYWRGEGVDQDRVKAGTWFERAAASGSEDAETNLGWFYLDDSQGVYSATSDEEAALLDRYAGSREKAFQWFCKAATQGDARAQFKVGEAYWNGSGAGMNKLQARLWLEKAAQQQDADAIAWLESAANAAWYTRLENWIHAALDGELSGVADCSGAADRRHSGRGMEGAPSDPEAVEASAEDAQQAVEAASQ | failed |
| MFTAYKKFWTNYVNFTGRSSRSDYWWAILCNSLIILPFVFTATSIFYSNLIEFIRGSAISTFSGEESVLSVYSIDVIILFIIIVLFSLAILLPNLAISIRRLRDAGFHWSLIFVPIGAALFSFLGLIPFLRAIVSIIVWFALIFYYILLCQPSKPYQAPVQPIAPQQPQQMAPQGQPVQAQVQPQSQTTPQQPQTPPVQQPQAPTNQQ | failed |
| MFTHLDENQQPRMVDISQKVAGDRRAVAQCIVQLPKAIKDYLTGQEIFLKKGPVIQTAIIAGTMAVKKTADLIPFCHTLPIHGCKFDINIVYQKRDYLEIFLQCAVNTNYKTGVEMEALCGVSVAALTIYDMCKSISSEIIIKNTKLIEKTGGKADVSQTPLYGLVLTGGKSRRMGKDKALINYQGQPHGQYIYDLLAKYCEQVFLSARPSQWQGTPLENLPTLVDRGESVGPMSGILTALQSYPGVNWLIIACDLAYINSTMVEKLIAQARQDLVATCYENADQGFPEALCGFYTPLALQLFTKAQNIGLHCPVKILQMADCQLIKPDNLFDIANINSPEDYGQINLEHHHHHH | not failed |
| MFTMDDLNQMDTQTLTDTLGSIFEHSSWIAERSAALRPFSSLSDLHRKMTGIVKAADRETQLDLIKKHPRLGTKKTMSDDSVREQQNAGLGKLEQQEYEEFLMLNEHYYDRFGFPFILAVKGKTKQDIHQALLARLESERETEFQQALIEIYRIARFRLADIITEKGETQMKRTMSYGKGNVFAYRTYLKPLTGVKQIPESSFAGRDNTVVGVDVTCEIGGEAFLPSFTDGDNTLVVATDSMKNFIQRHLASYEGTTTEGFLHYVAHRFLDTYSHMDTITLTGEDIPFEAMPAYEEKELSTSRLVFRRSRNERSRSVLKAERSGNTITITEQYSEIMDLQLVKVSGNSFVGFIRDEYTTLPEDGNRPLFVYLNISWQYENTNDSYASDPARYVAAEQVRDLASTVFHELETPSIQNLIYHIGCRILARFPQLTDVSFQSQNHTWDTVVEEIPGSKGKVYTEPRPPYGFQHFTVTREDAEKEKQKAAEKCRSLKA | failed |
| MFVFMLLLLLPFTISKAKDFPANPIEKAGYKLDFSDEFNGPTLDREKWTDYYLPHWCKDPESAKANYRFENGSLVEYITEDQKPWCPEHDGTVRSSAIMSFDKSWIHNFSGTTDNHERNEWRGYTTKYGYFEIRAKLSNTGGGGHQAWWMVGMQDDTNDWFNSKQTGEIDILETFFSKKDTWRIAAYGWNDPNFQTSWTISEDKVPSGDPTSEYHIYAMEWTPTALKFYYDNELFKVIYGSPDYEMGTILNIYTDAGSGAHNDVWPKEWAIDYMRVWKPVDGYKESESLNNYLIRNRQTGKFLYIEENNDKVSYGDITLKNEKNAKWSKEYRDGYTLLKNNETGEYLNIENQTGYIEHGKVPKTWWSAQWSEVPVDGYTRFVNRWKPNMSIHTESYEGVLQYGNVPNTYWTSQWQLIPVE | not failed |
| MFVGFLSGLIVMGALLSILLVLLGVMALRVFVRYILPILLILLIIRLIISGIVLLFNPHFWLFIAVVALVLWILGKIRN | failed |
| MFVLNIFSTTHKQRGLNRASCPPLGNYSNNHTLAYRVKCISEETRDSNSLVSSLNRKLWKTSVAGSDIPMIYSPFLEDMQNTLFASFETVEDYPLSEFLASAQSSKKPARIESWCYQCPKFRKIRLTYLDAGVAAQVFNAVWYPISSLELPILGVDFLSFGGKNVLCVMDFQPLMNDQYYLDKYIQPLHPIRERYADLAGRMSSRFYDENRFFSKELLFGRFDSTKPIYERLFPAFREYLDLYITLAKQTVEDDKSRSIIWQLQCEYDRYSAEKDPAMSLFRSYFGSTWAHRFVYEFLFENSRYESSLDNKT | not failed |
| MFVNQHGYSFGLSCALDGLSKREKDAQRQNKLLELGLLTNRNSTFFEEATQTLARNLGLPICLVGLMVEDEINIVSAVGIYRLGVGNPNLVSRQISRNDAYCTLVVDSAMPLMITDALAEPFFAEGELYQRYGIRSYLGTPLLTRDGVCLGTLAALDFSPHDFREPDVALMNMTARWCMGEIEH | failed |

Source: a protein production outcome set (Wang et al. 2014)
